Substitutions are numbered along the chain they refer to. “And” between values parts separate entries of the source, which are not always exact repeats. Identical values can stand only once.

B1: wild type, Q9NAV7 (protein)
chain: MGFKQDIATLRGDLRTYAQDIFLAFLNKYPDEKRNFKNYVGKSDQELKSMAKFGDHTEKVFNLMMEVADRATDCVPLASDASTLVQMKQHSGLTTGNFEKLFVALVEYMRASGQSFDSQSWDRFGKNLVSALSSAGMK
B2: wild type, Q9NAV8 (protein)
chain: B1 chain with L10I, K33R, N35Y, S82N, G92S

For the first data set the following is noted: Amphitrite ornata; pH 7; 20 °C; GdnHCl; UV?visible spectrophotometer; potassium phosphate 100 mM; transition: 2; reversible: yes; whole UniProt chain shown.
On to B1, for which the “denaturant midpoint (higher = more stable)” value came to 1.09 M and the unfolding free energy was 2.21 kcal/mol.

The same data set, now with this note: Amphitrite ornata; pH 7; 20 °C; Urea; UV?visible spectrophotometer; potassium phosphate 100 mM; transition: 2; reversible: yes; whole UniProt chain shown.
Consider B1, for which the “denaturant midpoint (higher = more stable)” value was found to be 4.12 M and the unfolding free energy was found to be 2.42 kcal/mol.

The same data set, now with this note: Amphitrite ornata; pH 7; Thermal; DSC; degassed buffer (potassium phosphate) 100 mM; transition: 2; reversible: yes; whole UniProt chain shown.
Regarding B1, the Tm is 47.7 °C and 48.6 °C; the “unfolding enthalpy (calorimetric)” value was 165 kcal/mol and 166 kcal/mol; the “unfolding enthalpy (van 't Hoff)” value was 336 kcal/mol and 396 kcal/mol.
Regarding B2, the Tm is 50.5 °C and 49.8 °C; the “unfolding enthalpy (calorimetric)” value is 183 kcal/mol and 163 kcal/mol; the “unfolding enthalpy (van 't Hoff)” value was 384 kcal/mol and 412 kcal/mol.

Still in this data set, the particulars now being: Amphitrite ornata; pH 7; Thermal; UV?visible spectrophotometer; potassium phosphate 100 mM; transition: 2; reversible: yes; whole UniProt chain shown.
In the case of B1, the Tm is 46 °C.

In general, Tm refers to the temperature at the midpoint of the melting transition.

Source of the values: FireProtDB (doi:10.1021/bi5005975).
